{"source": "patent US11994512B2", "about": "“Single-cell genomic methods to generate ex vivo cell systems that recapitulate in vivo biology with improved fidelity” (Massachusetts Institute of Technology, priority 2018, dated 2024)", "molecules": {"B1": {"name": "P11725 (protein, UniProt P11725 1-354, looked up)", "chain": "MLSNLRILLNNAALRKGHTSVVRHFWCGKPVQSQVQLKGRDLLTLKNFTGEEIQYMLWLSADLKFRIKQKGEYLPLLQGKSLGMIFEKRSTRTRLSTETGFALLGGHPSFLTTQDIHLGVNESLTDTARVLSSMTDAVLARVYKQSDLDTLAKEASIPIVNGLSDLYHPIQILADYLTLQEHYGSLKGLTLSWIGDGNNILHSIMMSAAKFGMHLQAATPKGYEPDPNIVKLAEQYAKENGTKLSMTNDPLEAARGGNVLITDTWISMGQEDEKKKRLQAFQGYQVTMKTAKVAASDWTFLHCLPRKPEEVDDEVFYSPRSLVFPEAENRKWTIMAVMVSLLTDYSPVLQKPKF", "modifications": "full-length"}, "B2": {"name": "P18242 (protein, UniProt P18242 1-410, looked up)", "chain": "MKTPGVLLLILGLLASSSFAIIRIPLRKFTSIRRTMTEVGGSVEDLILKGPITKYSMQSSPKTTEPVSELLKNYLDAQYYGDIGIGTPPQCFTVVFDTGSSNLWVPSIHCKILDIACWVHHKYNSDKSSTYVKNGTSFDIHYGSGSLSGYLSQDTVSVPCKSDQSKARGIKVEKQIFGEATKQPGIVFVAAKFDGILGMGYPHISVNNVLPVFDNLMQQKLVDKNIFSFYLNRDPEGQPGGELMLGGTDSKYYHGELSYLNVTRKAYWQVHMDQLEVGNELTLCKGGCEAIVDTGTSLLVGPVEEVKELQKAIGAVPLIQGEYMIPCEKVSSLPTVYLKLGGKNYELHPDKYILKVSQGGKTICLSGFMGMDIPPPSGPLWILGDVFIGSYYTVFDRDNNRVGFANAVVL", "modifications": "full-length"}, "B3": {"name": "P19467 (protein, UniProt P19467 1-573, looked up)", "chain": "MKGFLLLSLSLLLVTVGSSSQASSTTSSSGGTSPPTTVQSQSPGSSSQASTTTSSSGGASPPTTVQSQSPGSSSQASTTTSSSGGASPPTTVQSQSPGSSSQASTTTSSSGGASPPTTVQSQSPGSSSQASTTTSSSGGASPPTTVQSQSPGSSSQASTTTSSSGGASPPTTVQSQSPGSSSQVSTTTSSSGGASPPTTVQSQSPGSSSQPGPTQPSGGASSSTVPSGGSTGPSDLCNPNPCKGTASCVKLHSKHFCLCLEGYYYNSSLSSCVKGTTFPGDISMSVSETANLEDENSVGYQELYNSVTDFFETTFNKTDYGQTVIIKVSTAPSRSARSAMRDATKDVSVSVVNIFGADTKETEKSVSSAIETAIKTSGNVKDYVSINLCDHYGCVGNDSSKCQDILQCTCKPGLDRLNPQVPFCVAVTCSQPCNAEEKEQCLKMDNGVMDCVCMPGYQRANGNRKCEECPFGYSGMNCKDQFQLILTIVGTIAGALILILLIAFIVSARSKNKKKDGEEQRLIEDDFHNLRLRQTGFSNLGADNSIFPKVRTGVPSQTPNPYANQRSMPRPDY", "modifications": "full-length"}, "B4": {"name": "P19246 (protein, UniProt P19246 1-1090, looked up)", "chain": "MMSFGSADALLGAPFAPLHGGGSLHYSLSRKAGPGGTRSAAGSSSGFHSWARTSVSSVSASPSRFRGAASSTDSLDTLSNGPEGCVVAAVAARSEKEQLQALNDRFAGYIDKVRQLEAHNRSLEGEAAALRQQQAGRAAMGELYEREVREMRGAVLRLGAARGQLRLEQEHLLEDIAHVRQRLDEEARQREEAEAAARALARFAQEAEAARVELQKKAQALQEECGYLRRHHQEEVGELLGQIQGCGAAQAQAQAEARDALKCDVTSALREIRAQLEGHAVQSTLQSEEWFRVRLDRLSEAAKVNTDAMRSAQEEITEYRRQLQARTTELEALKSTKESLERQRSELEDRHQADIASYQDAIQQLDSELRNTKWEMAAQLREYQDLLNVKMALDIEIAAYRKLLEGEECRIGFGPSPFSLTEGLPKIPSISTHIKVKSEEMIKVVEKSEKETVIVEGQTEEIRVTEGVTEEEDKEAQGQEGEEAEEGEEKEEEEGAAATSPPAEEAASPEKETKSRVKEEAKSPGEAKSPGEAKSPAEAKSPGEAKSPGEAKSPGEAKSPAEPKSPAEPKSPAEAKSPAEPKSPATVKSPGEAKSPSEAKSPAEAKSPAEAKSPAEAKSPAEAKSPAEAKSPAEAKSPATVKSPGEAKSPSEAKSPAEAKSPAEAKSPAEAKSPAEVKSPGEAKSPAEPKSPAEAKSPAEVKSPAEAKSPAEVKSPGEAKSPAAVKSPAEAKSPAAVKSPGEAKSPGEAKSPAEAKSPAEAKSPIEVKSPEKAKTPVKEGAKSPAEAKSPEKAKSPVKEDIKPPAEAKSPEKAKSPVKEGAKPPEKAKPLDVKSPEAQTPVQEEAKHPTDIRPPEQVKSPAKEKAKSPEKEEAKTSEKVAPKKEEVKSPVKEEVKAKEPPKKVEEEKTLPTPKTEAKESKKDEAPKEAPKPKVEEKKETPTEKPKDSTAEAKKEEAGEKKKAVASEEETPAKLGVKEEAKPKEKTETTKTEAEDTKAKEPSKPTETEKPKKEEMPAAPEKKDTKEEKTTESRKPEEKPKMEAKVKEDDKSLSKEPSKPKTEKAEKSSSTDQKESQPPEKTTEDKATKGEK", "modifications": "full-length"}, "B5": {"name": "P0C027 (protein, UniProt P0C027 1-164, looked up)", "chain": "MKCKPNQTRTYDPEGFKKRAACLCFRSEREDEVLLVSSSRYPDRWIVPGGGMEPEEEPDGAAVREVYEEAGVKGKLGRLLGVFEQNQDRKHRTYVFVLTVTELLEDWEDSVSIGRKREWFKIEDAIKVLQCHKPVHAEYLEKLKLGGSPTNGNSAAPSPPESEP", "modifications": "full-length"}, "B6": {"name": "P23881 (protein, UniProt P23881 1-347, looked up)", "chain": "MGLEEELLRIAKKLEKMVSRKKTEGALDLLKKLNSCQMSIQLLQTTRIGVAVNGVRKHCSDKEVVSLAKVLIKNWKRLLDSPRTTKGEREEREKAKKEKGLGCSDWKPEAGLSPPRKKGGGEPKTRRDSVDSRSSTTSSPKRPSLERSNSSKSKVETPTTPSSPSTPTFAPAVCLLAPCYLTGDSVRDKCVEMLSAALKAEDNFKDYGVNCDKLASEIEDHIYQELKSTDMKYRNRVRSRISNLKDPRNPGLRRNVLSGAISPELIAKMTAEEMASDELRELRNAMTQEAIREHQMAKTGGTTTDLLRCSKCKKKNCTYNQVQTRSADEPMTTFVLCNECGNRWKFC", "modifications": "full-length"}, "B7": {"name": "P06728 (protein, UniProt P06728 1-395, looked up)", "chain": "MFLKAAVLTLALVAITGTRAEVTSDQVANVVWDYFTQLSNNAKEAVEQFQKTDVTQQLSTLFQDKLGDASTYADGVHNKLVPFVVQLSGHLAQETERVKEEIKKELEDLRDRMMPHANKVTQTFGENMQKLQEHLKPYAVDLQDQINTQTQEMKLQLTPYIQRMQTTIKENVDNLHTSMMPLATNLKDKFNRNMEELKGHLTPRANELKATIDQNLEDLRRSLAPLTVGVQEKLNHQMEGLAFQMKKNAEELQTKVSAKIDQLQKNLAPLVEDVQSKVKGNTEGLQKSLEDLNRQLEQQVEEFRRTVEPMGEMFNKALVQQLEQFRQQLGPNSGEVESHLSFLEKSLREKVNSFMSTLEKKGSPDQPQALPLPEQAQEQAQEQAQEQVQPKPLES", "modifications": "full-length"}}, "data": [{"tested_on": "intracellular proteome of ENR+CD and ENR organoids", "assay": "LC-MS/MS TMT proteomics of ENR+CD versus ENR organoids", "assay_type": "cell-based, C57BL/6 mice", "conditions": "protein abundance, ENR+CD versus ENR organoids; aggregate of the four sample pairs", "values": [{"molecule": "B1", "Average logFC": "−1.477"}, {"molecule": "B2", "Average logFC": 1.296}, {"molecule": "B3", "Average logFC": 1.199}, {"molecule": "B4", "Average logFC": 1.284}, {"molecule": "B5", "Average logFC": 1.134}, {"molecule": "B6", "Average logFC": "−1.33"}, {"molecule": "B7", "Average logFC": "−1.57"}]}, {"tested_on": "intracellular proteome of ENR+CD and ENR organoids", "assay": "LC-MS/MS TMT proteomics of ENR+CD versus ENR organoids", "assay_type": "cell-based, C57BL/6 mice", "conditions": "protein abundance, ENR+CD versus ENR organoids; replicate M1-1; log2 ratio", "values": [{"molecule": "B1", "M1-1 Log2 Median Normalized": "−1.478"}, {"molecule": "B2", "M1-1 Log2 Median Normalized": 1.508}, {"molecule": "B3", "M1-1 Log2 Median Normalized": 1.437}, {"molecule": "B4", "M1-1 Log2 Median Normalized": 1.432}, {"molecule": "B5", "M1-1 Log2 Median Normalized": 1.368}, {"molecule": "B6", "M1-1 Log2 Median Normalized": "−1.331"}, {"molecule": "B7", "M1-1 Log2 Median Normalized": "−1.343"}]}, {"tested_on": "intracellular proteome of ENR+CD and ENR organoids", "assay": "LC-MS/MS TMT proteomics of ENR+CD versus ENR organoids", "assay_type": "cell-based, C57BL/6 mice", "conditions": "protein abundance, ENR+CD versus ENR organoids; replicate M1-2; log2 ratio", "values": [{"molecule": "B1", "M1-2 Log2 Median Normalized": "−1.458"}, {"molecule": "B2", "M1-2 Log2 Median Normalized": 1.211}, {"molecule": "B3", "M1-2 Log2 Median Normalized": 0.978}, {"molecule": "B4", "M1-2 Log2 Median Normalized": 1.357}, {"molecule": "B5", "M1-2 Log2 Median Normalized": 1.133}, {"molecule": "B6", "M1-2 Log2 Median Normalized": "−1.172"}, {"molecule": "B7", "M1-2 Log2 Median Normalized": "−2.171"}]}, {"tested_on": "intracellular proteome of ENR+CD and ENR organoids", "assay": "LC-MS/MS TMT proteomics of ENR+CD versus ENR organoids", "assay_type": "cell-based, C57BL/6 mice", "conditions": "protein abundance, ENR+CD versus ENR organoids; replicate M2-1; log2 ratio", "values": [{"molecule": "B1", "M2-1 Log2 Median Normalized": "−2.2695"}, {"molecule": "B2", "M2-1 Log2 Median Normalized": 0.9875}, {"molecule": "B3", "M2-1 Log2 Median Normalized": 1.3955}, {"molecule": "B4", "M2-1 Log2 Median Normalized": 1.1695}, {"molecule": "B5", "M2-1 Log2 Median Normalized": 0.8135}, {"molecule": "B6", "M2-1 Log2 Median Normalized": "−1.7775"}, {"molecule": "B7", "M2-1 Log2 Median Normalized": "−1.8605"}]}, {"tested_on": "intracellular proteome of ENR+CD and ENR organoids", "assay": "LC-MS/MS TMT proteomics of ENR+CD versus ENR organoids", "assay_type": "cell-based, C57BL/6 mice", "conditions": "protein abundance, ENR+CD versus ENR organoids; replicate M2-2; log2 ratio", "values": [{"molecule": "B1", "M2-2 Log2 Median Normalized": "−1.132"}, {"molecule": "B2", "M2-2 Log2 Median Normalized": 1.479}, {"molecule": "B3", "M2-2 Log2 Median Normalized": 0.984}, {"molecule": "B4", "M2-2 Log2 Median Normalized": 1.176}, {"molecule": "B5", "M2-2 Log2 Median Normalized": 1.192}, {"molecule": "B6", "M2-2 Log2 Median Normalized": "−1.12"}, {"molecule": "B7", "M2-2 Log2 Median Normalized": "−0.907"}]}, {"tested_on": "intracellular proteome of ENR+CD and ENR organoids", "assay": "LC-MS/MS TMT proteomics of ENR+CD versus ENR organoids", "assay_type": "cell-based, C57BL/6 mice", "conditions": "up = enriched in ENR+CD, down = enriched in ENR; FDR<0.05 and log fold change cut-off", "values": [{"molecule": "B1", "change": "down"}, {"molecule": "B2", "change": "up"}, {"molecule": "B3", "change": "up"}, {"molecule": "B4", "change": "up"}, {"molecule": "B5", "change": "up"}, {"molecule": "B6", "change": "down"}, {"molecule": "B7", "change": "down"}]}]}
